In patent publication US20170137467A1 (CHROMOTEK, published 2017):
Ends that are not written are not given here.

B1: BC2 nanobody (VHH)
VHH: QVQLVESGGGLVQPGGSLTLSCTASGFTLDHYDIGWFRQAPGKEREGVSCINNSDDDTYYADSVKGRFTIFMDNAKDTVYLQMNSLKPEDTAIYYCAEARGCKRGRYEYDFWGQGTQVTVSS
notes: Alpaca VHH, 122 aa; also called BC2-Nb; BC2 nanotrap (BC2-Nb immobilized on agarose/Sepharose beads); not shown: C-terminal 6xHis-tag added by the pHEN6 vector
B2: BC2 nanobody (BC2-Nb) (VHH)
VHH: B1 VHH
notes: immobilised on agarose/sepharose beads in this assay; also called BC2 nanotrap (immobilised form); not shown: C-terminal 6xHis-tag added by pHEN6 vector

How the values were obtained:
β-catenin peptide 25-39 = biological target: T1, β-catenin peptide 25-39 (human, UniProt P35222); experiment: pepscan: 15-mer peptide on OVA-microspheres, biotinylated BC2-Nb, streptavidin-PE
T1 construct: synthetic 15-mer; additional N-terminal cysteine for coupling; also called Start 25 End 39
T1 peptide (looked up): WQQQSYLDSGIHSGA
From the text: (§1) As negative controls, microspheres comprising Ovalbumin and the Myc-peptide ([…]) covalently coupled to OVA-microspheres were used. […] Evaluation of the PE-signals were done in a Flexmap 3D (Luminex).

[1] = biological target: T2, β-catenin peptide 101-115 (human, UniProt P35222); experiment: as above
T2 construct: synthetic 15-mer; additional N-terminal cysteine for coupling
T2 peptide (looked up): ETLDEGMQIPSTQFD
From the text: as §1

[2] = biological target: T3, β-catenin peptide 109-123 (human, UniProt P35222); experiment: as above
T3 construct: synthetic 15-mer; additional N-terminal cysteine for coupling; also called Start 109 End 123
T3 peptide (looked up): IPSTQFDAAHPTNVQ
From the text: as §1

β-catenin peptide 89-103 = biological target: T4, β-catenin peptide 89-103 (human, UniProt P35222); experiment: as above
T4 construct: synthetic 15-mer; additional N-terminal cysteine for coupling; also called Start 89 End 103
T4 peptide (looked up): TRAQRVRAAMFPETL
From the text: as §1

β-catenin peptide 65-79 = biological target: T5, β-catenin peptide 65-79 (human, UniProt P35222); experiment: as above
T5 construct: synthetic 15-mer; additional N-terminal cysteine for coupling; also called Start 65 End 79
T5 peptide (looked up): EWEQGFSQSFTQEQV
From the text: as §1

AMEPDRKAAVSHWQQ = biological target: T6, AMEPDRKAAVSHWQQ (also: coupled via added N-terminal Cys to OVA-microspheres); experiment: as above
T6 construct: also called β-catenin peptide Start 13 End 27
T6 peptide: CAMEPDRKAAVSHWQQ
From the text: as §1

β-catenin peptide 33-47 = biological target: T7, β-catenin peptide 33-47 (human, UniProt P35222); experiment: as above
T7 construct: synthetic 15-mer; additional N-terminal cysteine for coupling; also called Start 33 End 47
T7 peptide (looked up): SGIHSGATTTAPSLS
From the text: as §1

β-catenin peptide 21-35 = biological target: T8, β-catenin peptide 21-35 (human, UniProt P35222); experiment: as above
T8 construct: synthetic 15-mer; additional N-terminal cysteine for coupling; also called Start 21 End 35
T8 peptide (looked up): AVSHWQQQSYLDSGI
From the text: as §1

[3] = biological target: T9, β-catenin peptide 105-119 (human, UniProt P35222); experiment: as above
T9 construct: synthetic 15-mer; additional N-terminal cysteine for coupling
T9 peptide (looked up): EGMQIPSTQFDAAHP
From the text: as §1

β-catenin peptide 85-99 = biological target: T10, β-catenin peptide 85-99 (human, UniProt P35222); experiment: as above
T10 construct: synthetic 15-mer; additional N-terminal cysteine for coupling; also called Start 85 End 99
T10 peptide (looked up): QYAMTRAQRVRAAMF
From the text: as §1

[4] = biological target: T11, β-catenin peptide 113-127 (human, UniProt P35222); experiment: as above
T11 construct: synthetic 15-mer; additional N-terminal cysteine for coupling; also called Start 113 End 127
T11 peptide (looked up): QFDAAHPTNVQRLAE
From the text: as §1

β-catenin peptide 93-107 = biological target: T12, β-catenin peptide 93-107 (human, UniProt P35222); experiment: as above
T12 construct: synthetic 15-mer; additional N-terminal cysteine for coupling; also called Start 93 End 107
T12 peptide (looked up): RVRAAMFPETLDEGM
From the text: as §1

β-catenin peptide 29-43 = biological target: T13, β-catenin peptide 29-43 (human, UniProt P35222); experiment: as above
T13 construct: synthetic 15-mer; additional N-terminal cysteine for coupling; also called Start 29 End 43
T13 peptide (looked up): SYLDSGIHSGATTTA
From the text: as §1

β-catenin peptide 69-83 = biological target: T14, β-catenin peptide 69-83 (human, UniProt P35222); experiment: as above
T14 construct: synthetic 15-mer; additional N-terminal cysteine for coupling; also called Start 69 End 83
T14 peptide (looked up): GFSQSFTQEQVADID
From the text: as §1

β-catenin peptide 1-15 = biological target: T15, β-catenin peptide 1-15 (human, UniProt P35222); experiment: as above
T15 construct: synthetic 15-mer; additional N-terminal cysteine for coupling; also called Start 1 End 15
T15 peptide (looked up): MATQADLMELDMAME
From the text: as §1

BC2T K4E = biological target: T16, BC2T K4E (human); experiment: library pulldown, LC-MS of supernatant; ratio vs GFP-Nb control (0=captured, 1=not captured)
T16 construct: position 4 library, row E
T16 peptide: Ac-PDREAAVSHWQQ-NH2
Procedure, shortened: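 Unbound peptide left in supernatant after 1 h pulldown in PBS/0.01% CHAPS measured by reversed-phase LC-MS (8–30% eluent B gradient, 20 min).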

Binder | binding result (β-catenin peptide 25-39) | binding result [1] | binding result [2] | binding result (β-catenin peptide 89-103) | binding result (β-catenin peptide 65-79) | binding result (AMEPDRKAAVSHWQQ) | binding result (β-catenin peptide 33-47) | binding result (β-catenin peptide 21-35) | binding result [3] | binding result (β-catenin peptide 85-99) | binding result [4] | binding result (β-catenin peptide 93-107) | binding result (β-catenin peptide 29-43) | binding result (β-catenin peptide 69-83) | binding result (β-catenin peptide 1-15) | ratio (BC2T K4E)
B1 | no binding (tested: 1 µg/ml BC2-Nb) | no binding (tested: 1 µg/ml BC2-Nb) | no binding (tested: 1 µg/ml BC2-Nb) | no binding (tested: 1 µg/ml BC2-Nb) | no binding (tested: 1 µg/ml BC2-Nb) | binds | no binding (tested: 1 µg/ml BC2-Nb) | no binding (tested: 1 µg/ml BC2-Nb) | no binding (tested: 1 µg/ml BC2-Nb) | no binding (tested: 1 µg/ml BC2-Nb) | no binding (tested: 1 µg/ml BC2-Nb) | no binding (tested: 1 µg/ml BC2-Nb) | no binding (tested: 1 µg/ml BC2-Nb) | no binding (tested: 1 µg/ml BC2-Nb) | no binding (tested: 1 µg/ml BC2-Nb) | –
B2 | – | – | – | – | – | – | – | – | – | – | – | – | – | – | – | 0.5
